# Data taken from PMC4415419, “The bZIP transcription factor HY5 interacts with the promoter of the monoterpene synthase gene QH6 in modulating its rhythmic expression”.
# T1: GST-HY5 (Arabidopsis thaliana, UniProt O24646 1-168)
# T1 sequence: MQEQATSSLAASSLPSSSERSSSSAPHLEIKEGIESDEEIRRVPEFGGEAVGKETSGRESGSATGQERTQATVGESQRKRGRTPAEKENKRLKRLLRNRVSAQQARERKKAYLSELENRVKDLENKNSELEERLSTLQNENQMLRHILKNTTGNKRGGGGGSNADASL
# B1: 391-442 (QH6 promoter G-box probe) (dsDNA)
# DNA 1: CCTTTAAGTTGCTCTATTTTGACACGTGGCAAAATAATATCTATCTACCCAC
# DNA 2: GTGGGTAGATAGATATTATTTTGCCACGTGTCAAAATAGAGCAACTTAAAGG
# Molecular target: T1, GST-HY5
# Experiment: EMSA; 5 ug protein, 20 fmol probe; shift abolished by unlabeled 52-bp competitor (0.5-4 pmol); LightShift Chemiluminescent EMSA kit (Pierce), 20 uL, 8% native PAGE in 1x TBE; salt, pH and temperature not stated
# Conditions: protein: recombinant; tags: N-terminal GST (pGEX-4T-1); chain copies: 2; label: biotin; blunt
binder,measurement,value
B1,binding result,binds
